For data set [1], the system named is Natural killer (NK) cells. The class given is cell-based, human. The source says: Where not shown, data was not yet determined.
A short description of data set [2]: Stability in simulated intestinal fluid (SIF). The data set is classed as in vitro ADME. To be noted: pH 6.8, 100 fold dilution of standard SIF concentration, 37° C., read-out: SIF t1/2 (converted). In short, it runs like this:
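Peptides at 20 μM final were incubated at 37 °C in SIF (potassium phosphate with pancreatin, pH 6.8), and reactions were quenched with acetonitrile/1% formic acid at time points from 0 min to 24 h. Percent remaining relative to time 0 was determined by LC-MS/MS against an internal standard, and half-life came from a first-order decay fit.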

Data set [3] is described as follows: Stability in human fecal homogenate (anaerobic). The data set is classed as in vitro ADME. Particulars: pH 6.8, 20% human fecal homogenate, 37° C., up to 24 hours, read-out: t1/2: Human Feces anaerobic. In short, it runs like this: (§1)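 Supernatant of 20% pooled fecal homogenate in anaerobic growth medium (pH 6.8, bile salts, cysteine) dosed to 20 μM compound, incubated anaerobically at 37 °C. Samples at 0 min–24 h quenched in acetonitrile/methanol, LC/MS/MS vs internal standard; half-life from first-order exponential fit of percent remaining relative to time 0.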

Data set [4] is described as follows: Stability in cynomolgus monkey fecal homogenate (anaerobic). The data set is classed as in vitro ADME. To be noted: pH 6.8, 20% cynomolgus monkey fecal homogenate, 37° C., up to 24 hours, read-out: t1/2: Monkey Feces anaerobic (converted). A digest of the protocol: as §1
A short description of the next data set: Stability in rat plasma. The class given is in vitro ADME. To be noted: both sexes, pooled, SD rat plasma, EDTA, 37° C., up to 24 hours, read-out: t1/2: Rat Plasma EDTA. A digest of the protocol: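 Peptides at 20 μM incubated at 37 °C in pooled SD rat EDTA plasma, sampled up to 24 h and quenched in acidified acetonitrile/methanol containing internal standard. LC-MS peak-area ratios expressed as % remaining versus time zero; half-life from first-order exponential decay fit.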

Data set [5] addresses T1, interleukin-23 receptor (IL-23R), human (human, UniProt Q5VWK5 24-629).
T1 sequence (looked up): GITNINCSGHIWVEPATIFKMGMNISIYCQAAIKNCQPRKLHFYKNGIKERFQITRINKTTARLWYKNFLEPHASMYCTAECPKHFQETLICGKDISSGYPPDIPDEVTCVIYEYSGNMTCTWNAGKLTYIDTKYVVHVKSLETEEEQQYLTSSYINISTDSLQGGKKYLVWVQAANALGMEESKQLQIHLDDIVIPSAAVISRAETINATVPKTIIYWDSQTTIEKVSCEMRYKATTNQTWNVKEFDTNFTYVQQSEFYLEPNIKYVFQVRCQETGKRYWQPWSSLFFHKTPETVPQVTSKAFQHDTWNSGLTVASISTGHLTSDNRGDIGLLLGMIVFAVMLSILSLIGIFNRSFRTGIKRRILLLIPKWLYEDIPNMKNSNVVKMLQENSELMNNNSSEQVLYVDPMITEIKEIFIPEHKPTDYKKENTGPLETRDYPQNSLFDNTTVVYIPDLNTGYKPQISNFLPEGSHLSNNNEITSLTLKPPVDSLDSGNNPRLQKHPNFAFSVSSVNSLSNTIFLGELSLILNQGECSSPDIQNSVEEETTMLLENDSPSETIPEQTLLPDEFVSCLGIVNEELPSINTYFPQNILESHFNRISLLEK
The data set is described as follows: cell-based or functional assay.

Data set [6] concerns the target T1, interleukin-23 receptor (IL-23R), human. The data set is described as follows: cell-based or functional assay. This is another data set of the same source.

The source of these data is patent publication US20230129095A1, “PEPTIDE INHIBITORS OF INTERLEUKIN-23 RECEPTOR AND THEIR USE TO TREAT INFLAMMATORY DISEASES” (Protagonist Therapeutics, Inc., priority 2020, published 2023).

Bridges are numbered along the chain shown (N, C = ends). [ ]: non-standard residue; d: D form. Trp(7-Ph) = N[C@@H](Cc1c[nH]c2c(-c3ccccc3)cccc12)C(=O)O; 2Nal = N[C@@H](Cc1ccc2ccccc2c1)C(=O)O; AEF = NCCOc1ccc(C[C@H](N)C(=O)O)cc1; αMeK = C[C@](N)(CCCCN)C(=O)O; Abu = CC[C@H](N)C(=O)O

The IC50 is the concentration needed to halve the response being measured.

Molecule `CC(=O)NCCCC[C@@H]1NC(=O)[C@H](Cc2c[nH]c3c(-c4ccccc4)cccc23)NC(=O)[C@H]([C@@H](C)O)NC(=O)[C@H](CC(N)=O)NC(=O)[C@@H](NC(C)=O)C(C)(C)SSC(C)(C)[C@@H](C(=O)N[C@@H](Cc2ccc(OCCN)cc2)C(=O)N[C@@H](Cc2ccc3ccccc3c2)C(=O)N[C@@](C)(CCCCN)C(=O)N[C@@H](CCCCNC(C)=O)C(=O)N[C@@H](CC(N)=O)C(=O)N[C@H](CC(C)C)C(N)=O)NC1=O` [Peptide 1, Ac-[Pen]-N-T-[W(7-Ph)]-[Lys(Ac)]-[Pen]-Phe[4-(2-aminoethoxy)]-[2-Nal]-[a-MeLys]-[Lys(Ac)]-N-[(D)Leu]-NH2] came in with an IC50 in data set [1] of 4.3 nM. The half-life at 20 μM in data set [2] is 11.1 h; in data set [3], more than 24 h; in data set [4], more than 24 h; in “Stability in rat plasma”, more than 24 h.

B1: Peptide No. 16 (SEQ ID No. 16) (peptide)
peptide: XNTXKXXXXKNL
modifications: Ac-[Pen]-N-T-[W(7-Ph)]-[Lys(Ac)]-[Pen]-Phe[4-(2-aminoethoxy)]-[3Quin]-[a-MeLys]-[Lys(Ac)]-N-[(D)Leu]-NH2; N-terminal acetyl, C-terminal amide; cyclized via Pen-Pen disulfide bond
Consider B1, for which the “pStat3 HTRF IC50 (DB cells IL23R pSTAT3 cell assay, 0.5 nM IL-23)” value (from here on “pStat3 HTRF IC50”) in data set [5] came to 0.365 nM. The “NK Cell Assay IC50 (IFNgamma secretion by human NK cells stimulated with IL-23 and IL-18)” value (“NK Cell Assay IC50” for short) in data set [6] came out at 2.9 nM.

B2: Peptide No. 13 (SEQ ID No. 13) (peptide)
peptide: XNTXKXXXXENK
modifications: Ac-[Pen]-N-T-[W(7-Ph)]-[Lys(Ac)]-[Pen]-Phe[4-(2-aminoethoxy)]-[3Quin]-[THP]-E-N-[(D)Lys]-NH2; N-terminal acetyl, C-terminal amide; cyclized via Pen-Pen disulfide bond
Consider B2, for which, in data set [5], the “pStat3 HTRF IC50” value turned out to be 0.386 nM. Also, the “NK Cell Assay IC50” value in data set [6] came to 1.55 nM.

B3: Peptide No. 1 (SEQ ID No. 1) (peptide)
peptide: XNTXKXXXXKNL
modifications: Ac-[Pen]-N-T-[W(7-Ph)]-[Lys(Ac)]-[Pen]-Phe[4-(2-aminoethoxy)]-[2-Nal]-[a-MeLys]-[Lys(Ac)]-N-[(D)Leu]-NH2; N-terminal acetyl, C-terminal amide; cyclized via Pen-Pen disulfide bond
On to B3, for which the “pStat3 HTRF IC50” value in data set [5] was 0.518 nM. In addition, the “NK Cell Assay IC50” value in data set [6] turned out to be 4.3 nM.

B4: Peptide No. 14 (SEQ ID No. 14) (peptide)
peptide: XNTXKXXXXKNK
modifications: Ac-[Pen]-N-T-[W(7-Ph)]-[Lys(Ac)]-[Pen]-Phe[4-(2-aminoethoxy)]-[3Quin]-[a-MeLys]-[Lys(Ac)]-N-[(D)Lys]-NH2; N-terminal acetyl, C-terminal amide; cyclized via Pen-Pen disulfide bond
Turning to B4, the “pStat3 HTRF IC50” value in data set [5] is 0.437 nM. Besides, the “NK Cell Assay IC50” value in data set [6] was found to be 2.41 nM.
As to Ac-[Abu]QT[Trp(7-Ph)]K(Ac)C[AEF][2Nal][αMeK]K(Ac)N[dL]-NH2 (thioether 1-6) [Peptide No. 18 (SEQ ID No. 18)], the “pStat3 HTRF IC50” value in data set [5] stood at 0.993 nM. Besides, in data set [6], the “NK Cell Assay IC50” value was determined as 6.28 nM.

B5: Peptide No. 15 (SEQ ID No. 15) (peptide)
peptide: XNTXKXXXXENL
modifications: Ac-[Pen]-N-T-[W(7-Ph)]-[Lys(Ac)]-[Pen]-Phe[4-(2-aminoethoxy)]-[3Quin]-[THP]-E-N-[(D)Leu]-NH2; N-terminal acetyl, C-terminal amide; cyclized via Pen-Pen disulfide bond
As for B5, in data set [5], the “pStat3 HTRF IC50” value came out at 0.186 nM. The “NK Cell Assay IC50” value in data set [6] was determined as 2.44 nM.
